Blank lines part the entries; values can stand above or below the substance they belong to.
What was measured:
NKp44-Ig = molecular target: T1, NKp44-Ig (Homo sapiens, UniProt O95944); experiment: Effect of peptides on NKp44-Ig binding to tumor cells (flow cytometry); details: for Effect on NKp44-Ig binding to tumor cells: 2 μg/well NKp44-Ig, 10 μg/well peptide, 1.5 hr, number in brackets is an undefined grade
T1 construct: fusion proteins containing the extracellular domains NKp30, NKp44 or NKp46 fused to the Fc portion of human IgG1
T1 sequence (O95944 22-192 limits assumed): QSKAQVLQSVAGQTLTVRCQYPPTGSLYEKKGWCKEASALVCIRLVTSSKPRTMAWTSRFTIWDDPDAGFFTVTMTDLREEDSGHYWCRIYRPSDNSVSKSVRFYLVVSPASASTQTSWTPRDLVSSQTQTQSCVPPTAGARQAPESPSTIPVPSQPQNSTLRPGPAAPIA
Protocol: (§1) Binding of rNK receptors and binding inhibition assays were performed as follows: 1×10^5 target cells were incubated with 2 μg of the NK receptor-Ig and 5 or 10 μg of the peptides in staining solution consisting of 0.5% (w/v) BSA and 0.05% sodium azide in PBS at 4° C. for 1.5 hrs. Then, cells were washed and stained with APC-conjugated anti-human IgG. Dead cells were detected with propidium iodide (PI). Percentage of inhibition was calculated as the percent of the cell population showing a reduced staining by the NK receptor-Ig in the presence of peptides as compared to reference positive staining by the NK receptor-Ig without peptides. […] Flow cytometry was performed using a FACSCanto II or FACScalibur (BD Bioscience) and results were analyzed using Diva 6.1.2 or CellQuest 3.3, respectively.
Target cells were incubated for 1.5 hr with 2 μg/well NKp44-Ig and 10 μg/well of each peptide. NKp44-Ig binding intensity was determined by flow cytometry, using fluorescent 2Ab (goat anti-mouse mAb).
(§2) Target cells were stained with 2 μg/well of NK receptor-Igs in the presence of 10 μg/well of SEQ ID NO: 4, 5, 55 (15mer-shared core sequence between SEQ ID NO:4 and 5), or SEQ ID NO: 1. The NK receptor-Ig staining intensities were determined by flow cytometry, using fluorescent APC-conjugated F(ab′)2 goat anti-human IgG.

human cancer cells = experiment: Direct binding of biotin-conjugated NKp44-derived peptides to human cancer cells (flow cytometry); details: biotin-conjugated peptide 10 μg/well; number in brackets is an undefined grade
NKp46D2-Ig = molecular target: T2, NKp46D2-Ig (Homo sapiens, UniProt O76036); experiment: Effect of peptides on NKp46D2-Ig binding to target cells (flow cytometry); details: for Effect on NKp46D2L binding to cells: 1.5 hr, compared to staining without peptide or with non-affecting peptides, number in brackets is an undefined grade
T2 construct: made in house
Protocol: as §1
(§3) Target cells were incubated for 1.5 hr with 2 μg/well NKp46D2-Ig and 10 μg/well of each peptide. NKp46D2-Ig binding intensity was determined by flow cytometry, using fluorescent 2Ab (goat anti-mouse monoclonal antibody).
as §2

[1] = tested on: human cancer cells, MIN6 murine beta cell line and primary mouse beta cells; experiment: Direct binding of biotin-conjugated NKp46-derived peptides to target cells (flow cytometry, fluorescent Streptavidin); details: biotin-conjugated peptide 10 μg/well, number in brackets is an undefined grade
LIR1-Ig = molecular target: T3, LIR1-Ig (Homo sapiens, UniProt Q8NHL6); experiment: Effect of peptides on LIR1-Ig binding to target cells (flow cytometry); details: for Binding of LIR1-Ig in the presence of peptide: Example 1, FIGS. 3 and 5, HeLa cells
T3 construct: made in house
Protocol: as §1, with “target cells were incubated with 2 μg of the NK receptor-Ig and 5 or 10 μg of the peptides in staining solution consisting” left out
as §3, §2

NKp30-Ig = molecular target: T4, NKp30-Ig (Homo sapiens, UniProt O14931); experiment: Effect of peptide on NKp30-Ig binding to HeLa cells (flow cytometry); details: pep4 0.625 to 10 μg/well, FIG. 9D
T4 construct: fusion proteins containing the extracellular domains NKp30, NKp44 or NKp46 fused to the Fc portion of human IgG1; made in house
T4 sequence (O14931 19-135 limits assumed): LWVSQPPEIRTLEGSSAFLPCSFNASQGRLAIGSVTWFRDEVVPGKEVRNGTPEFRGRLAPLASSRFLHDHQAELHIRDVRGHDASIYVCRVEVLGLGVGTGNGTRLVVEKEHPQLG
Protocol: as §1, with “target cells were incubated with 2 μg of the NK receptor-Ig and 5 or 10 μg of the peptides in staining solution consisting” left out
as §2

[2] = tested on: NKp46-expressing NK cells; experiment: Flow cytometry cytotoxicity assay: lysis of target tumor cells by human primary NK cells; format: cell-based
Protocol: (§4) NK cells were isolated from the peripheral blood of healthy donors using a human NK cell isolation kit (Miltenyi Biotec). NK purity was greater than 90% (CD3^−CD56^±). Purified NK cells were cultured in CellGro SCGM serum-free medium (CellGenix, 2001) supplemented with 10% heat inactivated human plasma from healthy donors, 1 mM sodium pyruvate, 2 mM L-glutamine, MEM non-essential amino acids, 1% penicillin/streptomycin, 10 mM HEPES (Gibco™) and 300 IU/ml of human IL-2 (Biological Industries Israel Ltd).
(§5) The flow cytometry cytotoxicity assay was previously described (Flodstrom et al. Diabetes 48, 706-713 (1999)). Effector human primary NK cells were labeled with CellTrace CFSE (Invitrogen, C3554). Analysis of 7-AAD for negative-CFSE target tumor cells was performed using a FACSCantoII and data were analyzed by Diva 6.1.2. For blocking experiments, NK cells were pre-incubated with mouse polyclonal anti-NKp46 serum or with naive serum 30 min at 4° C. before being combined with target cells. The NK degranulation assay was performed as previously described (Raulet, D. H. Nat Rev Immunol 3, 781-790 (2003); Biassoni, R. et al. Eur J Immunol 29, 1014-1020 (1999)).
Next, the influence of the peptide of SEQ ID NO: 4 on NK cells function was investigated. Target HeLa cells were plated and pep4 or mock peptide was added just before adding an effector human primary NK cell line. […] To verify that the peptide of SEQ ID NO: 4 inhibits NKp46-mediated lysis, anti-NKp46 serum was used to block the receptor on human primary NK cells.

NKp46-Ig = molecular target: T5, NKp46-Ig (Homo sapiens, UniProt O76036); experiment: Effect of peptides on NKp46-Ig binding to tumor cells (flow cytometry); details: Example 3, FIG. 9B/9C; 10 μg/well peptide; to a lesser extent than NKp46D2-Ig binding
T5 construct: fusion proteins containing the extracellular domains NKp30, NKp44 or NKp46 fused to the Fc portion of human IgG1; made in house
Protocol: as §1, §2

human primary NK cells = experiment: CD107a (LAMP-1) degranulation assay of human primary NK cells; format: cell-based; details: co-cultured with HeLa or 721.221 target cells for four hours at different E:T ratios; FIG. 10C, p<0.05
Protocol: as §4
as §5, with “1014-1020 (1999)). […]” for “1014-1020 (1999)).”

[3] = 2 μg/well NKp46D2-Ig, 10 μg/well peptide
[4] = HeLa cells, pep4 0.625 to 10 μg/well, FIG. 9D

T3 sequence (Q8NHL6 24-461 limits assumed): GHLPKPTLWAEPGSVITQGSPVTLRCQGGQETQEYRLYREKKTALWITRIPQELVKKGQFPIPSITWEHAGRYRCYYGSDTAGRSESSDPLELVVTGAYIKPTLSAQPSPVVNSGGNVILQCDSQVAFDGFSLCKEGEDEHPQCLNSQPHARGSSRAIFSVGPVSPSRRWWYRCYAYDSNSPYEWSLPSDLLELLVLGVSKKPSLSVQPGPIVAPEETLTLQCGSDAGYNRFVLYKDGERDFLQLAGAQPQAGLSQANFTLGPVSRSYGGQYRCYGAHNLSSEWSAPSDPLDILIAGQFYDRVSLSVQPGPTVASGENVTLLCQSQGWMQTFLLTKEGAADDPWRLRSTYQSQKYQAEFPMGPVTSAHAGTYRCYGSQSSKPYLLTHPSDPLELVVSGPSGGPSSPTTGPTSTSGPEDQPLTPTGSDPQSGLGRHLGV
T5 sequence (O76036 22-258 limits assumed): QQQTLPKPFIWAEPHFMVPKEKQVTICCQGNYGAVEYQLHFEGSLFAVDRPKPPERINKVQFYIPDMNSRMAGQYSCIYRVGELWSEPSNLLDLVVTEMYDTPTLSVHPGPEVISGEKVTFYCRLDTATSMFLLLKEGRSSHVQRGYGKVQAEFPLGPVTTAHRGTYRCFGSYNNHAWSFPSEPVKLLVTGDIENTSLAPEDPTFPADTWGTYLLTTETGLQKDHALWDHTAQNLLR
T2 sequence (O76036 with tags, fused parts or gaps isoform O76036-6): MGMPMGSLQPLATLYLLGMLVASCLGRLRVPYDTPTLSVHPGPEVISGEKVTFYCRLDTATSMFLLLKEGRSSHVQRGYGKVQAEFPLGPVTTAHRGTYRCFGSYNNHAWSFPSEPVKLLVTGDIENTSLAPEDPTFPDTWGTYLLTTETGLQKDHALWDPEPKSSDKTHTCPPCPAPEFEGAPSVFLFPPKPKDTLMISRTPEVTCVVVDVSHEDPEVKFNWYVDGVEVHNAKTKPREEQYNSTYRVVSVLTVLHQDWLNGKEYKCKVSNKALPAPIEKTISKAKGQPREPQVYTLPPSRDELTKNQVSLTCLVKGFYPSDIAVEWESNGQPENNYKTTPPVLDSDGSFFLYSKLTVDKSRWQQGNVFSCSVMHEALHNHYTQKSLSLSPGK

Effect on NKp44-Ig binding to tumor cells (NKp44-Ig): Enhance (1)
Substance: EASAL VCIRL VTSSK PRTVA (EASALVCIRLVTSSKPRTVA) [SEQ ID NO: 32]
Direct binding to tumor cells (human cancer cells): Yes (1)

Effect on NKp44-Ig binding to tumor cells (NKp44-Ig): Enhance (1)
Substance: KGWCK EASAL VCIRL VTSSK (KGWCKEASALVCIRLVTSSK) [SEQ ID NO: 31]
Direct binding to tumor cells (human cancer cells): Yes (1)

Effect on NKp46D2L binding to cells (NKp46D2-Ig; [3]): inhibiting binding
Effect on NKp46D2L binding to cells (NKp46D2-Ig; 2 μg/well NKp46D2-Ig, 10 μg/well peptide, listed as 6): Suppress (1)
Binding of LIR1-Ig in the presence of peptide (LIR1-Ig): not affected
Substance: LDTAT SMFLL LKEGR SSHVQ (LDTATSMFLLLKEGRSSHVQ) [SEQ ID NO: 6]
Direct binding to cells [1]: No

Effect on NKp46D2L binding to cells (NKp46D2-Ig; [3]): enhancing NKp46D2-Ig binding
Effect on NKp46D2L binding to cells (NKp46D2-Ig; 2 μg/well NKp46D2-Ig, 10 μg/well peptide, listed as 12): Enhance (3)
Binding of LIR1-Ig in the presence of peptide (LIR1-Ig): not affected
Substance: PLGPV TTAHR GTYRC FGSYN (PLGPVTTAHRGTYRCFGSYN) [SEQ ID NO: 12]
Direct binding to cells [1]: direct binding
Direct binding to cells ([1]; listed as 12): Yes (3)

Effect on NKp46D2L binding to cells (NKp46D2-Ig; [3]): inhibiting binding
Effect on NKp46D2L binding to cells (NKp46D2-Ig; 2 μg/well NKp46D2-Ig, 10 μg/well peptide, listed as 4): Suppress (2)
Binding of NKp46D2-Ig to HeLa cells upon co-incubation with peptide (NKp46D2-Ig; Example 3, FIG. 9A, 2 μg/well NKp46D2-Ig, 10 μg/well peptide): inhibited binding
Inhibition of rNKp46 binding across tumor cell lines (NKp46D2-Ig; HeLa, PC-3, HEK293T, 721.221, CHO-K1 and MIN-6 cells, FIG. 9C): evident for numerous tumor cell lines
Binding of LIR1-Ig in the presence of peptide (LIR1-Ig): not affected
NKp46-Ig binding to tumor cells in the presence of peptide (NKp46-Ig): inhibited
Substance: SGEKV TFYCR LDTAT SMFLL (SGEKVTFYCRLDTATSMFLL) [SEQ ID NO: 4]
Binding inhibition of NKp30-Ig (NKp30-Ig): did not induce significant binding inhibition
Direct binding to cells [1]: No
Binding inhibition of LIR1-Ig (LIR1-Ig; [4]): did not induce significant binding inhibition
Lysis of target 721.221 and CHO-K1 cells by NK cells ([2]; 721.221 and CHO-K1 target cells): inhibition of lysis
Lysis of target cells by NKp46-expressing NK cells ([2]; Example 1): inhibit lysis
Blocking effect of anti-NKp46 serum on lysis when the peptide was present ([2]; anti-NKp46 serum compared to control serum, FIG. 10B): no blocking effect was observed
Lysis of target cells in the presence of control serum ([2]; compared to control peptide, 15:1 E:T, FIG. 10B, p<0.01): inhibited lysis
Lysis of target HeLa cells by human primary NK cell line ([2]; compared to mock1, 4 hr, FIG. 10A, p<0.01): significantly suppressed
Binding inhibition of NKp44-Ig (NKp44-Ig; [4]): did not induce significant binding inhibition
Percentage of CD107a+ NK cells (human primary NK cells): significantly reduced

Effect on NKp46D2L binding to cells (NKp46D2-Ig; [3]): enhancing NKp46D2-Ig binding
Effect on NKp46D2L binding to cells (NKp46D2-Ig; 2 μg/well NKp46D2-Ig, 10 μg/well peptide, listed as 7): Enhance (2)
Binding of LIR1-Ig in the presence of peptide (LIR1-Ig): not affected
Substance: SMFLL LKEGR SSHVQ RGYGK (SMFLLLKEGRSSHVQRGYGK) [SEQ ID NO: 7]
Direct binding to cells [1]: direct binding
Direct binding to cells ([1]; listed as 7): Yes (1)

NKp46-Ig binding to tumor cells in the presence of peptide (NKp46-Ig): also inhibited
Substance: TFYCR LDTAT SMFLL (TFYCRLDTATSMFLL) [SEQ ID NO: 55]

Effect on NKp46D2L binding to cells (NKp46D2-Ig; [3]): inhibiting binding
Effect on NKp46D2L binding to cells (NKp46D2-Ig; 2 μg/well NKp46D2-Ig, 10 μg/well peptide, listed as 5): Suppress (2)
Binding of LIR1-Ig in the presence of peptide (LIR1-Ig): not affected
NKp46-Ig binding to tumor cells in the presence of peptide (NKp46-Ig): inhibited
Substance: TFYCR LDTAT SMFLL LKEGR (TFYCRLDTATSMFLLLKEGR) [SEQ ID NO: 5]
Direct binding to cells [1]: No

Effect on NKp46D2L binding to cells (NKp46D2-Ig; [3]): enhancing NKp46D2-Ig binding
Effect on NKp46D2L binding to cells (NKp46D2-Ig; 2 μg/well NKp46D2-Ig, 10 μg/well peptide, listed as 13): Enhance (1.5)
Binding of LIR1-Ig in the presence of peptide (LIR1-Ig): not affected
Substance: TTAHR GTYRC FGSYN NHAWS (TTAHRGTYRCFGSYNNHAWS) [SEQ ID NO: 13]
Direct binding to cells [1]: direct binding
Direct binding to cells ([1]; listed as 13): Yes (2)

Effect on NKp44-Ig binding to tumor cells (NKp44-Ig): Enhance (1)
Substance: VCIRL VTSSK PRIMA WTSRF (VCIRLVTSSKPRTMAWTSRF) [SEQ ID NO: 33]

Effect on NKp44-Ig binding to tumor cells (NKp44-Ig): inhibiting binding
Effect on NKp44-Ig binding to tumor cells (NKp44-Ig; listed as 34): Suppress (1.5)
Substance: VTSSK PRTVA WTSRF TIWDD (VTSSKPRTVAWTSRFTIWDD) [SEQ ID NO: 34]
Direct binding to tumor cells (human cancer cells): No
